Key:
[1] = target: T1, attenuated PLY mut recombinant protein (pneumolysin with alanine 146 deleted) (Streptococcus pneumoniae, UniProt Q04IN8 1-471); experiment: ELISA, PLYmut coated at 0.1 µg/well, antibody in 2-fold dilutions, HRP goat anti-human IgG
T1 construct: The change is a deletion of A146, not a substitution ('-' under new means deleted); Expressed in E. coli BL21 (DE3) plysS with a C-terminal His tag; also called PLYmut protein; PLY mut antigen; not shown: C-terminal His tag

[2] = target: pneumolysin (PLY) recombinant protein (Streptococcus pneumoniae, UniProt Q04IN8 1-471)

Binder	EC50 [1] [µg/mL]	EC50 [2] [µg/mL]
humanized antibody 2E5H3L0 (antibody, human IgG1, kappa, V domains shown, also called 2E5H3L0 humanized antibody; hu2E5VH3CH/hu2E5VL0CL) VH: EVQLVESGGGLVQPGGSLKLSCAASGYTFGDNWMNWVRQASGKGLEWVGEIRLKSNNYATRYAESVKGRFTISRDDSKNTVYLQMNSLKTEDTAVYYCTRTQFITSVVAPFDFWGQGTTVTVSS VL: not shown	0.0162	0.0203
2E5 mouse/human chimeric antibody (2E5HL) (antibody, human IgG1, kappa, V domains shown, also called 2E5HL human-mouse chimeric antibody; c2E5VHCH/c2E5VLCL) VH: EVKVEESGGGSVQPGGSMKLSCVASGYTFGDNWMNWVRQSPEKGLEWVAEIRLKSNNYATRYAESVKGRFTISRDDSKSSVYLQMNNLRTEDTGIYYCTRTQFITSVVAPFDFWGQGTTLTVSS VL: not shown	0.0158	0.0171
